We go through three substances from publication PMC12752648.

As usually defined, the pKd is the negative decadic logarithm of the Kd, by convention in mol/L. A low value points to a high Kd.

The target of data set [1] is oncolytic virus M1 (OVM) virions. Nature of the data set: virus binding to cells measured by qRT-PCR. Particulars: 22Rv1 cells expressing TPRA1 variants; parent: est. 1.4; read off a plot.
Data set [2] can be described thus: GFP-positive 22Rv1 cells by flow cytometry, 48 h. Particulars: glycan lost; control: wild-type TPRA1. A general note: In flow cytometry, cells or beads pass a laser one at a time.
Data set [3] addresses oncolytic virus M1 (OVM) virions (oncolytic virus M1 (Getah-like alphavirus)). The data set is described as follows: BLI; Octet RED96e; OVM loaded on aminopropylsilane (APS) biosensors in PBS; TPRA1-ECD-Fc (0.5-8 µM) or Fc (8 µM) in PBS with 0.02% Tween-20 and 1 mg/mL BSA; 1:1 binding model.

pKd: −log10 of the molar value.

Consider “HA-tagged full-length TPRA1 (from UniProt Q86W33-1) N11Q; N23Q”, for which the other: Relative change in binding in data set [1] is 0.35. “TPRA1 (transmembrane protein adipocyte-associated 1): N11/23Q”: the “other: susceptibility of cells to viral infection” value in data set [2] is listed as “decreases”. As for “recombinant extracellular domain of TPRA1 fused to an Fc tag (TPRA1-ECD-Fc) (from UniProt Q86W33-1 1-47) (Fc fusion)”, the pKd in data set [3] was 7.04.
